This experiment deals with CXCL8 (human).

B1: P1156 (evasin from Ixodes ricinus), purified, C-terminal StrepII:His tag (natural protein)
chain: DGGADDDNELFTVQYCGMNCTKDEGGTWTGCTGKKEGCKCYHESGKNYGLCLSTEYTDFSQYGNPSDSEIEAAKPKRSDTLSH
As for B1, the mean IC50 (three biological replicates) of inhibition of primary human granulocyte migration induced by the EC80 dose of CXCL8 was 1.8e-09 M.

Source of the values: paper PMC5910400.
